Laboratory results: US20160272693A1 (ZEALAND PHARMA A S, published 2016)
*1 amine or outer side, *2 acyl side, *3 side chain or, on linkers, in order; H or OH if unused. Bridges are numbered along the chain shown (N, C = ends). [ ]: non-standard residue; d: D form. The star is where a group is joined. C20 diacid = O=C(O)CCCCCCCCCCCCCCCCCCC(=O)*; γGlu = O=C(O)[C@H](CCC(=O)[*:2])N[*:1]; Hyp = O=C(O)[C@@H]1C[C@@H](O)CN1; NMeI = CC[C@H](C)[C@H](NC)C(=O)O; Sar = CNCC(=O)O

B1: [19CD]-isoGlu-R-C( )-GTAT-C( )-ATERLAHFLNRSSF-Gly(Me)-A-Ile(Me)-LSSTEVGSSTP-NH2 (Compd. 35) (peptide)
peptide: {C20 diacid}-[γGlu]RCGTATCATERLAHFLNRSSF[Sar]A[NMeI]LSSTEVGSSTP-NH2
modifications: disulfide 3-8
SMILES: CC[C@H](C)[C@@H](C(=O)N[C@@H](CC(C)C)C(=O)N[C@@H](CO)C(=O)N[C@@H](CO)C(=O)N[C@H](C(=O)N[C@@H](CCC(=O)O)C(=O)N[C@H](C(=O)NCC(=O)N[C@@H](CO)C(=O)N[C@@H](CO)C(=O)N[C@H](C(=O)N1CCC[C@H]1C(N)=O)[C@@H](C)O)C(C)C)[C@@H](C)O)N(C)C(=O)[C@H](C)NC(=O)CN(C)C(=O)[C@H](Cc1ccccc1)NC(=O)[C@H](CO)NC(=O)[C@H](CO)NC(=O)[C@H](CCCNC(=N)N)NC(=O)[C@H](CC(N)=O)NC(=O)[C@H](CC(C)C)NC(=O)[C@H](Cc1ccccc1)NC(=O)[C@H](Cc1c[nH]cn1)NC(=O)[C@H](C)NC(=O)[C@H](CC(C)C)NC(=O)[C@H](CCCNC(=N)N)NC(=O)[C@H](CCC(=O)O)NC(=O)[C@@H](NC(=O)[C@H](C)NC(=O)[C@@H]1CSSC[C@H](NC(=O)[C@H](CCCNC(=N)N)NC(=O)CC[C@H](NC(=O)CCCCCCCCCCCCCCCCCCC(=O)O)C(=O)O)C(=O)NCC(=O)N[C@@H]([C@@H](C)O)C(=O)N[C@@H](C)C(=O)N[C@@H]([C@@H](C)O)C(=O)N1)[C@@H](C)O
B2: [19CD]-isoGlu-R-C( )-GTAT-C( )-ATERLAHFLERSSF-Gly(Me)-A-Ile(Me)-LSSTEVGSSTP-NH2 (Compd. 36) (peptide)
peptide: {C20 diacid}-[γGlu]RCGTATCATERLAHFLERSSF[Sar]A[NMeI]LSSTEVGSSTP-NH2
modifications: disulfide 3-8
SMILES: CC[C@H](C)[C@@H](C(=O)N[C@@H](CC(C)C)C(=O)N[C@@H](CO)C(=O)N[C@@H](CO)C(=O)N[C@H](C(=O)N[C@@H](CCC(=O)O)C(=O)N[C@H](C(=O)NCC(=O)N[C@@H](CO)C(=O)N[C@@H](CO)C(=O)N[C@H](C(=O)N1CCC[C@H]1C(N)=O)[C@@H](C)O)C(C)C)[C@@H](C)O)N(C)C(=O)[C@H](C)NC(=O)CN(C)C(=O)[C@H](Cc1ccccc1)NC(=O)[C@H](CO)NC(=O)[C@H](CO)NC(=O)[C@H](CCCNC(=N)N)NC(=O)[C@H](CCC(=O)O)NC(=O)[C@H](CC(C)C)NC(=O)[C@H](Cc1ccccc1)NC(=O)[C@H](Cc1c[nH]cn1)NC(=O)[C@H](C)NC(=O)[C@H](CC(C)C)NC(=O)[C@H](CCCNC(=N)N)NC(=O)[C@H](CCC(=O)O)NC(=O)[C@@H](NC(=O)[C@H](C)NC(=O)[C@@H]1CSSC[C@H](NC(=O)[C@H](CCCNC(=N)N)NC(=O)CC[C@H](NC(=O)CCCCCCCCCCCCCCCCCCC(=O)O)C(=O)O)C(=O)NCC(=O)N[C@@H]([C@@H](C)O)C(=O)N[C@@H](C)C(=O)N[C@@H]([C@@H](C)O)C(=O)N1)[C@@H](C)O
B3: [19CD]-isoGlu-R-C( )-GTAT-C( )-ATERLAHFLHRSSF-Gly(Me)-A-Ile(Me)-LSSTEVGSSTP-NH2 (Compd. 37) (peptide)
peptide: {C20 diacid}-[γGlu]RCGTATCATERLAHFLHRSSF[Sar]A[NMeI]LSSTEVGSSTP-NH2
modifications: disulfide 3-8
SMILES: CC[C@H](C)[C@@H](C(=O)N[C@@H](CC(C)C)C(=O)N[C@@H](CO)C(=O)N[C@@H](CO)C(=O)N[C@H](C(=O)N[C@@H](CCC(=O)O)C(=O)N[C@H](C(=O)NCC(=O)N[C@@H](CO)C(=O)N[C@@H](CO)C(=O)N[C@H](C(=O)N1CCC[C@H]1C(N)=O)[C@@H](C)O)C(C)C)[C@@H](C)O)N(C)C(=O)[C@H](C)NC(=O)CN(C)C(=O)[C@H](Cc1ccccc1)NC(=O)[C@H](CO)NC(=O)[C@H](CO)NC(=O)[C@H](CCCNC(=N)N)NC(=O)[C@H](Cc1c[nH]cn1)NC(=O)[C@H](CC(C)C)NC(=O)[C@H](Cc1ccccc1)NC(=O)[C@H](Cc1c[nH]cn1)NC(=O)[C@H](C)NC(=O)[C@H](CC(C)C)NC(=O)[C@H](CCCNC(=N)N)NC(=O)[C@H](CCC(=O)O)NC(=O)[C@@H](NC(=O)[C@H](C)NC(=O)[C@@H]1CSSC[C@H](NC(=O)[C@H](CCCNC(=N)N)NC(=O)CC[C@H](NC(=O)CCCCCCCCCCCCCCCCCCC(=O)O)C(=O)O)C(=O)NCC(=O)N[C@@H]([C@@H](C)O)C(=O)N[C@@H](C)C(=O)N[C@@H]([C@@H](C)O)C(=O)N1)[C@@H](C)O
B4: [19CD]-isoGlu-R-C( )-GTAT-C( )-ATERLAHFLVRSSF-Gly(Me)-A-Ile(Me)-LSSTEVGSSTP-NH2 (Compd. 38) (peptide)
peptide: {C20 diacid-γGlu}-RCGTATCATERLAHFLVRSSF[Sar]A[NMeI]LSSTEVGSSTP-NH2
modifications: disulfide 2-7
SMILES: CC[C@H](C)[C@@H](C(=O)N[C@@H](CC(C)C)C(=O)N[C@@H](CO)C(=O)N[C@@H](CO)C(=O)N[C@H](C(=O)N[C@@H](CCC(=O)O)C(=O)N[C@H](C(=O)NCC(=O)N[C@@H](CO)C(=O)N[C@@H](CO)C(=O)N[C@H](C(=O)N1CCC[C@H]1C(N)=O)[C@@H](C)O)C(C)C)[C@@H](C)O)N(C)C(=O)[C@H](C)NC(=O)CN(C)C(=O)[C@H](Cc1ccccc1)NC(=O)[C@H](CO)NC(=O)[C@H](CO)NC(=O)[C@H](CCCNC(=N)N)NC(=O)[C@@H](NC(=O)[C@H](CC(C)C)NC(=O)[C@H](Cc1ccccc1)NC(=O)[C@H](Cc1c[nH]cn1)NC(=O)[C@H](C)NC(=O)[C@H](CC(C)C)NC(=O)[C@H](CCCNC(=N)N)NC(=O)[C@H](CCC(=O)O)NC(=O)[C@@H](NC(=O)[C@H](C)NC(=O)[C@@H]1CSSC[C@H](NC(=O)[C@H](CCCNC(=N)N)NC(=O)CC[C@H](NC(=O)CCCCCCCCCCCCCCCCCCC(=O)O)C(=O)O)C(=O)NCC(=O)N[C@@H]([C@@H](C)O)C(=O)N[C@@H](C)C(=O)N[C@@H]([C@@H](C)O)C(=O)N1)[C@@H](C)O)C(C)C
B5: [19CD]-isoGlu-R-C( )-GTAT-C( )-ATERLAHFLQRSSF-Gly(Me)-A-Ile(Me)-LSSTEVGSFTP-NH2 (Compd. 39) (peptide)
peptide: {C20 diacid}-[γGlu]RCGTATCATERLAHFLQRSSF[Sar]A[NMeI]LSSTEVGSFTP-NH2
modifications: disulfide 3-8
SMILES: CC[C@H](C)[C@@H](C(=O)N[C@@H](CC(C)C)C(=O)N[C@@H](CO)C(=O)N[C@@H](CO)C(=O)N[C@H](C(=O)N[C@@H](CCC(=O)O)C(=O)N[C@H](C(=O)NCC(=O)N[C@@H](CO)C(=O)N[C@@H](Cc1ccccc1)C(=O)N[C@H](C(=O)N1CCC[C@H]1C(N)=O)[C@@H](C)O)C(C)C)[C@@H](C)O)N(C)C(=O)[C@H](C)NC(=O)CN(C)C(=O)[C@H](Cc1ccccc1)NC(=O)[C@H](CO)NC(=O)[C@H](CO)NC(=O)[C@H](CCCNC(=N)N)NC(=O)[C@H](CCC(N)=O)NC(=O)[C@H](CC(C)C)NC(=O)[C@H](Cc1ccccc1)NC(=O)[C@H](Cc1c[nH]cn1)NC(=O)[C@H](C)NC(=O)[C@H](CC(C)C)NC(=O)[C@H](CCCNC(=N)N)NC(=O)[C@H](CCC(=O)O)NC(=O)[C@@H](NC(=O)[C@H](C)NC(=O)[C@@H]1CSSC[C@H](NC(=O)[C@H](CCCNC(=N)N)NC(=O)CC[C@H](NC(=O)CCCCCCCCCCCCCCCCCCC(=O)O)C(=O)O)C(=O)NCC(=O)N[C@@H]([C@@H](C)O)C(=O)N[C@@H](C)C(=O)N[C@@H]([C@@H](C)O)C(=O)N1)[C@@H](C)O
B6: [19CD]-isoGlu-R-C( )-GTAT-C( )-ATERLAHFLNRSSF-Gly(Me)-A-Ile(Me)-LSSTEVGSFTP-NH2 (Compd. 40) (peptide)
peptide: {C20 diacid}-[γGlu]RCGTATCATERLAHFLNRSSF[Sar]A[NMeI]LSSTEVGSFTP-NH2
modifications: disulfide 3-8
SMILES: CC[C@H](C)[C@@H](C(=O)N[C@@H](CC(C)C)C(=O)N[C@@H](CO)C(=O)N[C@@H](CO)C(=O)N[C@H](C(=O)N[C@@H](CCC(=O)O)C(=O)N[C@H](C(=O)NCC(=O)N[C@@H](CO)C(=O)N[C@@H](Cc1ccccc1)C(=O)N[C@H](C(=O)N1CCC[C@H]1C(N)=O)[C@@H](C)O)C(C)C)[C@@H](C)O)N(C)C(=O)[C@H](C)NC(=O)CN(C)C(=O)[C@H](Cc1ccccc1)NC(=O)[C@H](CO)NC(=O)[C@H](CO)NC(=O)[C@H](CCCNC(=N)N)NC(=O)[C@H](CC(N)=O)NC(=O)[C@H](CC(C)C)NC(=O)[C@H](Cc1ccccc1)NC(=O)[C@H](Cc1c[nH]cn1)NC(=O)[C@H](C)NC(=O)[C@H](CC(C)C)NC(=O)[C@H](CCCNC(=N)N)NC(=O)[C@H](CCC(=O)O)NC(=O)[C@@H](NC(=O)[C@H](C)NC(=O)[C@@H]1CSSC[C@H](NC(=O)[C@H](CCCNC(=N)N)NC(=O)CC[C@H](NC(=O)CCCCCCCCCCCCCCCCCCC(=O)O)C(=O)O)C(=O)NCC(=O)N[C@@H]([C@@H](C)O)C(=O)N[C@@H](C)C(=O)N[C@@H]([C@@H](C)O)C(=O)N1)[C@@H](C)O
B7: [19CD]-isoGlu-R-C( )-GTAT-C( )-ATERLADFLTRSSF-Gly(Me)-A-Ile(Me)-LSSTEVGSST-Hyp-NH2 (Compd. 41) (peptide)
peptide: {C20 diacid}-[γGlu]RCGTATCATERLADFLTRSSF[Sar]A[NMeI]LSSTEVGSST[Hyp]-NH2
modifications: disulfide 3-8
SMILES: CC[C@H](C)[C@@H](C(=O)N[C@@H](CC(C)C)C(=O)N[C@@H](CO)C(=O)N[C@@H](CO)C(=O)N[C@H](C(=O)N[C@@H](CCC(=O)O)C(=O)N[C@H](C(=O)NCC(=O)N[C@@H](CO)C(=O)N[C@@H](CO)C(=O)N[C@H](C(=O)N1C[C@H](O)C[C@H]1C(N)=O)[C@@H](C)O)C(C)C)[C@@H](C)O)N(C)C(=O)[C@H](C)NC(=O)CN(C)C(=O)[C@H](Cc1ccccc1)NC(=O)[C@H](CO)NC(=O)[C@H](CO)NC(=O)[C@H](CCCNC(=N)N)NC(=O)[C@@H](NC(=O)[C@H](CC(C)C)NC(=O)[C@H](Cc1ccccc1)NC(=O)[C@H](CC(=O)O)NC(=O)[C@H](C)NC(=O)[C@H](CC(C)C)NC(=O)[C@H](CCCNC(=N)N)NC(=O)[C@H](CCC(=O)O)NC(=O)[C@@H](NC(=O)[C@H](C)NC(=O)[C@@H]1CSSC[C@H](NC(=O)[C@H](CCCNC(=N)N)NC(=O)CC[C@H](NC(=O)CCCCCCCCCCCCCCCCCCC(=O)O)C(=O)O)C(=O)NCC(=O)N[C@@H]([C@@H](C)O)C(=O)N[C@@H](C)C(=O)N[C@@H]([C@@H](C)O)C(=O)N1)[C@@H](C)O)[C@@H](C)O

Each binder was assayed against T1, human amylin receptor 3 (hAMYR3), hCTR2 co-expressed with human receptor activity modifying protein 3 (hRAMP3) (human, UniProt P30988 25-474; O60896 24-148) (assay: cell-based or functional assay).
T1 sequence (looked up) 1: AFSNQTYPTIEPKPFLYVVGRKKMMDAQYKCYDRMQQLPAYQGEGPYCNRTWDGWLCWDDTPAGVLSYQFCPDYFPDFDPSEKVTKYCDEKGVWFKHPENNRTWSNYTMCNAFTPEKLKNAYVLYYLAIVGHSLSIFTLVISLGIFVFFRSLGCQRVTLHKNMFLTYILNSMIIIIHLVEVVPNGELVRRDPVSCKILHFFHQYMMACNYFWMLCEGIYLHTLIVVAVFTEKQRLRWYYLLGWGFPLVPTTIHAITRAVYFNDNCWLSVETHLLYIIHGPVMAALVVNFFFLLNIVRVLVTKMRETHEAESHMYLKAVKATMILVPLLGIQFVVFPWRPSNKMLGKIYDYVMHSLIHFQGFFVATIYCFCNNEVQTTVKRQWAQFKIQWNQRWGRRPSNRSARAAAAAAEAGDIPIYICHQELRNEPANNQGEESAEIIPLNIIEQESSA
T1 sequence (looked up) 2: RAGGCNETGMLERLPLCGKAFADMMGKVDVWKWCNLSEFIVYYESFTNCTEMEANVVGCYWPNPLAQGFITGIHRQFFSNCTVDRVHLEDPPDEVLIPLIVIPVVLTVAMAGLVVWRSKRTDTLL
With B1 the “hAMYR3 EC50 (nM); cAMP induction” value was 0.11 nM. B2 was tested, and the “hAMYR3 EC50 (nM); cAMP induction” value was 0.36 nM. B3 was tested, and the “hAMYR3 EC50 (nM); cAMP induction” value was 0.07 nM. In the case of B4, the “hAMYR3 EC50 (nM); cAMP induction” value is reported as 0.12 nM. With B5 the “hAMYR3 EC50 (nM); cAMP induction” value was 0.22 nM. For B6, the “hAMYR3 EC50 (nM); cAMP induction” value was 0.19 nM. With B7 the “hAMYR3 EC50 (nM); cAMP induction” value was 0.34 nM.
